Test results published in patent US20250263500A1.

Biological target: CD24 (human) (UniProt P25063)
Assay: cell-based or functional assay

CD24 (human), sequence (P25063 27-59): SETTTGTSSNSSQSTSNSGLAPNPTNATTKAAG

negative control antibody (mouse IgG)
Phagocytosis rate % (A549 tumor cells by human PBMC-derived M2 macrophages, antibody 5 µg/ml): 2.7%
Phagocytosis rate (%) (MCF-7 tumor cells by human PBMC-derived M2 macrophages, antibody 5 µg/ml): 1.3%
